Source: US20090202547A1 (FIBRON, published 2009)

T1: FR1exFc (UniProt P11362 22-376, limits assumed)
T1 construct: extracellular domain; also called FGFR1/Fc; FR1/Fc; not shown: Fc part; the construct of FR1exFc is not described
T1 sequence (looked up): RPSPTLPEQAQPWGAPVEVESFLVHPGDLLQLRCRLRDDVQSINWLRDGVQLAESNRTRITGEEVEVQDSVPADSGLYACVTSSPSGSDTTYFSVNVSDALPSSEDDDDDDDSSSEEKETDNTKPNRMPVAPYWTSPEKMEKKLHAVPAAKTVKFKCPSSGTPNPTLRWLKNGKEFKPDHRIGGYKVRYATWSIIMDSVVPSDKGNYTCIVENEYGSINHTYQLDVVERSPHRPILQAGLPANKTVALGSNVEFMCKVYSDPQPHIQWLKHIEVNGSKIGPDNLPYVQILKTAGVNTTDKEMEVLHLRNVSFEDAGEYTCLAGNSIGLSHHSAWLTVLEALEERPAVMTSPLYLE

T2: hFR3^D2Fc (human, UniProt P22607 143-250)
T2 construct: Only domain 2 of the entry stood in the assay; also called product of pChFR3^D2Fc; not shown: human Fc
T2 sequence: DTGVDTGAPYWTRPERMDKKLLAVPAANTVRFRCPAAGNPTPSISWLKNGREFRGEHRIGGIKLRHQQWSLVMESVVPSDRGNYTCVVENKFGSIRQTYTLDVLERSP


Experiments:
[1] = molecular target: T3, FR3exFc (human); assay: BIACORE
T3 construct: also called FGFR3/Fc; FR3/Fc
T3 sequence (chain, as listed by the source limits assumed): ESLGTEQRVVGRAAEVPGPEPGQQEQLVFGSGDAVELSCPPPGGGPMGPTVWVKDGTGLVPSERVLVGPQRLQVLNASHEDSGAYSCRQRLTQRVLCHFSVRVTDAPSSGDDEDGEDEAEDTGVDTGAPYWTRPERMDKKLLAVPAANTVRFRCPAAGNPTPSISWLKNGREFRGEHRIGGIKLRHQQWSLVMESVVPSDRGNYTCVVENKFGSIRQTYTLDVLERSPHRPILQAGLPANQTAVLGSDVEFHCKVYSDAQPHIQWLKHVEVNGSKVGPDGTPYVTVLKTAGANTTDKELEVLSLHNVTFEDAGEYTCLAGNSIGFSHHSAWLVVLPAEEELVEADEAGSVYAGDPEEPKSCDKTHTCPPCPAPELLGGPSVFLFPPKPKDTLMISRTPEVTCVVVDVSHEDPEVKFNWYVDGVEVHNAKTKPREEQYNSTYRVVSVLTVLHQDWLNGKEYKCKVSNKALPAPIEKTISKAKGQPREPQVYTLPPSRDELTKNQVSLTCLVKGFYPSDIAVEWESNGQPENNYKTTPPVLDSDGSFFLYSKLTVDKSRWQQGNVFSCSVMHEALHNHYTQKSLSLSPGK
Experimental: (§1) The affinity measurements were performed by BIACORE® analysis according to the standard procedure recommended by the supplier (Pharmacia). The anti-Fc antibody was coupled via the EDC/NHS chemistry to the chip and subsequently FGFR3 was captured. The Fabs of the invention were then bound to this surface.

[2] = molecular target: T4, FGFR3 (wild type) on cells (human, UniProt P22607 23-806); assay: cell-based or functional assay
T4 sequence (P22607 23-806 limits assumed): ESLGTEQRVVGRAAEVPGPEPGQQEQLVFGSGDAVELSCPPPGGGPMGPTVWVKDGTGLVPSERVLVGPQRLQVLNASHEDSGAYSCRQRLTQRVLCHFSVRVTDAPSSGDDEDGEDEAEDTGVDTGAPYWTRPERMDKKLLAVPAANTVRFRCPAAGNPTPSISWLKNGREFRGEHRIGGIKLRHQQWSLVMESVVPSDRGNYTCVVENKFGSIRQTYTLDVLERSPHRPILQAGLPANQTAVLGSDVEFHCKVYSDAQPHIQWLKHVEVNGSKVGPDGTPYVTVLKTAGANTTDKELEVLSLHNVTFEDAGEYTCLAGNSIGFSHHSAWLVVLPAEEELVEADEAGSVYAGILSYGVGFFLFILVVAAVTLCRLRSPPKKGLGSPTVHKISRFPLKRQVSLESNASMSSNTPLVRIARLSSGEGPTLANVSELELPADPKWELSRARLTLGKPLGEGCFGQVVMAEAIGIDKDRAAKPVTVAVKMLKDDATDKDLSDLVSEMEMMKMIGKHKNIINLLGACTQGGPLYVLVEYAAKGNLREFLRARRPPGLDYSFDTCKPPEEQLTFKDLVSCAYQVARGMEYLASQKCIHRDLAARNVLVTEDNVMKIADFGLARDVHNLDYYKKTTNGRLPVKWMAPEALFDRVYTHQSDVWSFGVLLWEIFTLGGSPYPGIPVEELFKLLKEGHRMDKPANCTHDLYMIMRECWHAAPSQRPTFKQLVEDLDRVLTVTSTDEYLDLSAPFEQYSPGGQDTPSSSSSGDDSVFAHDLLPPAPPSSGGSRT

[3] = molecular target: T1, FR1exFc; assay: Affinity to FGFR1 (BIACORE and/or FACS)
[4] = molecular target: T3, FR3exFc; assay: BIACORE, FGFR3 captured on an anti-Fc chip
Experimental: as §1

[5] = molecular target: T4, FGFR3 (wild type) on cells; assay: FACS
[6] = molecular target: T3, FR3exFc; assay: BIACORE, FGFR3 captured on an anti-Fc chip; remark: listed apart in the source
Experimental: as §1

[7] = molecular target: T4, FGFR3 (wild type) on cells; assay: indirect FACS-Scatchard
[8] = molecular target: T4, FGFR3 (wild type) on cells; assay: cell-based or functional assay; remark: listed apart in the source
[9] = molecular target: T3, FR3exFc; assay: BIAcore; number in parentheses taken as the monomeric Fab
Experimental: as §1

[10] = molecular target: T2, hFR3^D2Fc; assay: ELISA, Fc fusion anchored on an anti-human Fc coated plate, bound Fab detected with HRP anti-human Fab
From the text: Constructs comprising cDNAs that code for segments of the extracellular domain of FGFR3 were generated (FIG. 10). D2 comprises Ig domain 2, D2-3 comprises Ig domains 2 and 3, and D1-3 comprises Ig domains 1, 2 and 3. These constructs include pChFR3^D2Fc that codes for Ig-like domain 2 of FGFR3 and pChFR3^{D2,3}Fc that codes for domain 2 and 3, both as human Fc fusions. The corresponding chimeric proteins, as well as the control hFR3exFc (containing domains 1, 2 and 3) were anchored to an ELISA plate coated with a human Fc antibody. A panel of 8 best Fabs, MSPRO2, 11, 12, 21, 24, 26, 28 and 29, were added, and bound Fab was determined with HRP-α human Fab (FIG. 11). […] Both bind to the Ig like domain 2 while the others require domain 3 for binding. It was then tested whether or not Fabs that belong to the second group would distinguish the FGFR3IIIc isoform from the FGFRIIIb from. FDCP-FR3IIIb or FDCP-FR3IIIc cells were incubated in the presence of 1.25 ng/ml FGF9 with increasing doses of either MSPRO12 or MSPRO29. Ly6.3 was included as control. After 2 days in culture, cell proliferation was measured with the XTT reagent. Clearly, MSPRO29 (open triangle) was completely ineffective against the IIIb isoform (FIG. 12).

[11] = molecular target: T3, FR3exFc; assay: BIAcore, Fab-dHLX-MH miniantibody

koff [1] [s⁻¹] | IC50 FR3 (FGF9), FDCP-FGFR3 proliferation assay [2] [nM] | Kd [3] [nM] | Kd [4] [nM] | Kd [5] [nM] | Kd [6] [nM] | Kd [7] [nM] | IC50, FDCP-FGFR3 proliferation assay with FGF9, monomeric Fab (in parentheses) [8] [nM] | Kd [9] [nM] | binding result [10] | Kd [11] [nM] | IC50, FDCP-FGFR3 proliferation assay with FGF9, dimeric dHLX format [8] [nM] | Binder
0.002 | 45 | 2.5 | 3.7 | – | – | – | – | – | – | – | – | MSPRO54 (Fab, V domains shown) VH: QVQLVQSGAEVKKPGASVKVSCKASGYTFTSYYMHWVRQAPGQGLEWMGWINPNSGGTNYAQKFQGRVTMTRDTSISTAYMELSSLRSEDTAVYYCARNMAYTNYQYVNMPHFDYWGQGTLVTVSS VL: DIELTQPPSVSVAPGQTARISCSGDALGDKYASWYQQKPGQAPVLVIYDDSDRPSGIPERFSGSNSGNTATLTISGTQAEDEADYYCQSYDYFKLVFGGGTKLTVLG
0.004 | 50 | 160 | 9 | 0.3 | 9 | 0.3 | – | 9 | no binding | – | – | MSPRO28 (Fab, V domains shown) VH: QVQLVQSGAEVKKPGSSVKVSCKASGGTFSSYAISWVRQAPGQGLEWMGGIIPIFGTANYAQKFQGRVTITADESTSTAYMELSSLRSEDTAVYYCARGGGWVSHGYYYLFDLWGQGTLVTVSS VL: DIQMTQSPSSLSASVGDRVTITCRASQGISSYLAWYQQKPGKAPKLLIYAASSLQSGVPSRFSGSGSGTDFTLTISSLQPEDFAVYYCFQYGSIPPTFGQGTKVEIKR
0.00074 | 34 | – | 2.9 | – | – | – | – | – | – | – | – | MSPRO55 (Fab, V domains shown) VH: QVQLVQSGAEVKKPGASVKVSCKASGYTFTSYYMHWVRQAPGQGLEWMGWINPNSGGTNYAQKFQGRVTMTRDTSISTAYMELSSLRSEDTAVYYCARSMNSTMYWYLRRVLFDHWGQGTLVTVSS VL: DIALTQPASVSGSPGQSITISCTGTSSDVGGYNYVSWYQQHPGKAPKLMIYDVSNRPSGVSNRFSGSKSGNTASLTISGLQAEDEADYYCQSYDMYNYIVFGGGTKLTVLG
0.0005 | 70 | 32 | 4 | 1.4 | 4 | 1.4 | 70 | 4 | no binding | – | – | MSPRO26 (Fab, V domains shown) VH: QVQLVQSGAEVKKPGASVKVSCKASGYTFTSYYMHWVRQAPGQGLEWMGWINPNSGGTNYAQKFQGRVTMTRDTSISTAYMELSSLRSEDTAVYYCARGYWYAYFTYINYGYFDNWGQGTLVTVSS VL: DIALTQPASVSGSPGQSITISCTGTSSDVGGYNYVSWYQQHPGKAPKLMIYDVSNRPSGVSNRFSGSKSGNTASLTISGLQAEDEADYYCQSYDNNSDVVFGGGTKLTVLG
0.0004 | 220 | – | 4 | 4 | 4 | 4 | – | 4 | no binding | – | – | MSPRO11 (Fab, V domains shown) VH: QVQLVQSGAEVKKPGASVKVSCKASGYTFTSYYMHWVRQAPGQGLEWMGWINPNSGGTNYAQKFQGRVTMTRDTSISTAYMELSSLRSEDTAVYYCARYYGSSLYHYVFGGFIDYWGQGTLVTVSS VL: DIALTQPASVSGSPGQSITISCTGTSSDVGGYNYVSWYQQHPGKAPKLMIYDVSNRPSGVSNRFSGSKSGNTASLTISGLQAEDEADYYCQSHHFYEVFGGGTKLTVLG
0.00071 | 19 | – | 1.5 | < 1 | – | – | – | – | – | – | – | MSPRO59 (Fab, V domains shown, HuCAL Fab, framework VH6_L3) VH: QVQLQQSGPGLVKPSQTLSLTCAISGDSVSSNSAAWNWIRQSPGRGLEWLGRTYYRSKWYNDYAVSVKSRITINPDTSKNQFSLQLNSVTPEDTAVYYCARSYYPDFDYWGQGTLVTVSS VL: DIELTQPPSVSVAPGQTARISCSGDALGDKYASWYQQKPGQAPVLVIYDDSDRPSGIPERFSGSNSGNTATLTISGTQAEDEADYYCQSYDGPDLWVFGGGTKLTVLG
0.0054 | 70 | – | 10 | – | 10 | 0.3 | – | 10 | no binding | – | – | MSPRO24 (Fab, V domains shown) VH: QVQLVQSGAEVKKPGSSVKVSCKASGGTFSSYAISWVRQAPGQGLEWMGGIIPIFGTANYAQKFQGRVTITADESTSTAYMELSSLRSEDTAVYYCARVNHWTYTFDYWGQGTLVTVSS VL: not shown

Further lines, the binder ahead of its results:

Binder | koff [1] [s⁻¹] | IC50 FR3 (FGF9), FDCP-FGFR3 proliferation assay [2] [nM] | Kd [3] [nM] | Kd [4] [nM] | Kd [5] [nM] | Kd [6] [nM] | Kd [7] [nM] | IC50, FDCP-FGFR3 proliferation assay with FGF9, monomeric Fab (in parentheses) [8] [nM] | Kd [9] [nM] | binding result [10] | Kd [11] [nM] | IC50, FDCP-FGFR3 proliferation assay with FGF9, dimeric dHLX format [8] [nM]
MSPRO12 (Fab, V domains shown, HuCAL Fab, framework VH2_L3) VH: QVQLKESGPALVKPTQTLTLTCTFSGFSLSTSGVGVGWIRQPPGKALEWLALIDWDDDKYYSTSLKTRLTISKDTSKNQVVLTMTNMDPVDTATYYCARYHSWYEMGYYGSTVGYMFDYWGQGTLVTVSS VL: DIELTQPPSVSVAPGQTARISCSGDALGDKYASWYQQKPGQAPVLVIYDDSDRPSGIPERFSGSNSGNTATLTISGTQAEDEADYYCQSYDFDFAVFGGGTKLTVLG | 0.0023 | 58 | – | 14 | 6.5 | 14 | 6.5 | 58 | 14 | – | – | –
MS-Pro-28-dHLX-MH (Fab, V domains shown, Fab mini-antibody format Fab-dHLX-MH, a dimer of the Fab monomer; also called MSPRO28 Fab-dHLX) VH: QVQLVQSGAEVKKPGSSVKVSCKASGGTFSSYAISWVRQAPGQGLEWMGGIIPIFGTANYAQKFQGRVTITADESTSTAYMELSSLRSEDTAVYYCARGGGWVSHGYYYLFDLWGQGTLVTVSS VL: DIQMTQSPSSLSASVGDRVTITCRASQGISSYLAWYQQKPGKAPKLLIYAASSLQSGVPSRFSGSGSGTDFTLTISSLQPEDFAVYYCFQYGSIPPTFGQGTKVEIKR | – | – | – | – | – | – | – | – | – | – | 1.6 | –
MS-Pro-26-dHLX-MH (Fab, V domains shown, Fab mini-antibody format Fab-dHLX-MH, a dimer of the Fab monomer; also called MSPRO26 dimeric dHLX format; Fab-dHLX) VH: QVQLVQSGAEVKKPGASVKVSCKASGYTFTSYYMHWVRQAPGQGLEWMGWINPNSGGTNYAQKFQGRVTMTRDTSISTAYMELSSLRSEDTAVYYCARGYWYAYFTYINYGYFDNWGQGTLVTVSS VL: DIALTQPASVSGSPGQSITISCTGTSSDVGGYNYVSWYQQHPGKAPKLMIYDVSNRPSGVSNRFSGSKSGNTASLTISGLQAEDEADYYCQSYDNNSDVVFGGGTKLTVLG | – | – | – | – | – | – | – | – | – | – | 2 | 8
MS-Pro-11-dHLX-MH (Fab, V domains shown, Fab mini-antibody format Fab-dHLX-MH, a dimer of the Fab monomer; also called MSPRO11 Fab-dHLX) VH: QVQLVQSGAEVKKPGASVKVSCKASGYTFTSYYMHWVRQAPGQGLEWMGWINPNSGGTNYAQKFQGRVTMTRDTSISTAYMELSSLRSEDTAVYYCARYYGSSLYHYVFGGFIDYWGQGTLVTVSS VL: DIALTQPASVSGSPGQSITISCTGTSSDVGGYNYVSWYQQHPGKAPKLMIYDVSNRPSGVSNRFSGSKSGNTASLTISGLQAEDEADYYCQSHHFYEVFGGGTKLTVLG | – | – | – | – | – | – | – | – | – | – | 0.7 | –
MS-Pro-24-dHLX-MH (Fab, V domains shown, Fab mini-antibody format Fab-dHLX-MH, a dimer of the Fab monomer; also called MSPRO24 Fab-dHLX) VH: QVQLVQSGAEVKKPGSSVKVSCKASGGTFSSYAISWVRQAPGQGLEWMGGIIPIFGTANYAQKFQGRVTITADESTSTAYMELSSLRSEDTAVYYCARVNHWTYTFDYWGQGTLVTVSS VL: not shown | – | – | – | – | – | – | – | – | – | – | 2 | –
